The values below come from patent publication US20190062438A1 (CSL, published 2019).

Sequences and labels used below:
T1: human CD131 (human, UniProt P32927 17-897)
T1 sequence: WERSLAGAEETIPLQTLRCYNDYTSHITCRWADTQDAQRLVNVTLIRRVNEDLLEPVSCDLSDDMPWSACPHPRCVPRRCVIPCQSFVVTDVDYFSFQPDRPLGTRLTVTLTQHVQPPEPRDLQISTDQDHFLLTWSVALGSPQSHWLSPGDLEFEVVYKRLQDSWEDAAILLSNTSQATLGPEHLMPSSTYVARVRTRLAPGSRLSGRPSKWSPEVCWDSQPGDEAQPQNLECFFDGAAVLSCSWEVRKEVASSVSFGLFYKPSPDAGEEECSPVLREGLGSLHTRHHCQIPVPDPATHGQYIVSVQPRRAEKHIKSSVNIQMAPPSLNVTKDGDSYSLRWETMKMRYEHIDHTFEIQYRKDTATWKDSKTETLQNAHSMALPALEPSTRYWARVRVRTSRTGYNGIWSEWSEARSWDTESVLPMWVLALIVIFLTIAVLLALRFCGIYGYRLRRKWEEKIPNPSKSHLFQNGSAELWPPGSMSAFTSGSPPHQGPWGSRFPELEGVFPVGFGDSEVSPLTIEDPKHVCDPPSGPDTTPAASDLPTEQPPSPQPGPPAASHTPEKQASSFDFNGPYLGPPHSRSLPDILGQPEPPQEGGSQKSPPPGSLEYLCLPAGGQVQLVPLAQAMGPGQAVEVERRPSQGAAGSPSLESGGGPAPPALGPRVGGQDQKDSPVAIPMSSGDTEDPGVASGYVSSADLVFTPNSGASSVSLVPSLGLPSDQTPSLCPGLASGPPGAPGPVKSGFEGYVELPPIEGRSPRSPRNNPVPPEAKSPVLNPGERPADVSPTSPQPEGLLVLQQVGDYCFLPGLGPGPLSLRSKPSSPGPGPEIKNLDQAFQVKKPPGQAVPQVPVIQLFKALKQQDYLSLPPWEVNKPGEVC

B1: 9A2-VR24.93 (antibody, V domains shown)
VH: EVQLLESGGGLVQPGGSLRLSCAASGFTFPWYRVHWVRQAPGKGLEWVSSIRNENGWTYYADSVKGRFTISRDNSKNTLYLQMNSLRAEDTAVYYCARFYDSFFDIWGQGTMVTVSS
VL: DIQMTQSPSSVSASVGDRVTITCRASQGISSWLAWYQQKPGKAPKLLIYAASSLQSGVPSRFSGSGSGTDFTLTISSLQPEDFATYYCQQANSFPITFGQGTRLEIKR
B2: 9A2-VR24.98 (antibody, V domains shown)
VH: EVQLLESGGGLVQPGGSLRLSCAASGFTFPWYRVHWVRQAPGKGLEWVSSIRSSGGFPHYNSVVKGRFTISRDNSKNTLYLQMNSLRAEDTAVYYCARFYDSFFDIWGQGTMVTVSS
VL: DIQMTQSPSSVSASVGDRVTITCRASQGISSWLAWYQQKPGKAPKLLIYAASSLQSGVPSRFSGSGSGTDFTLTISSLQPEDFATYYCQQANSFPITFGQGTRLEIKR
B3: 9A2-VR24.56 (antibody, V domains shown)
VH: EVQLLESGGGLVQPGGSLRLSCAASGFTFPWYRVHWVRQAPGKGLEWVSSIRSSGGFTYYNPAVRGRFTISRDNSKNTLYLQMNSLRAEDTAVYYCARFYDSFFDIWGQGTMVTVSS
VL: DIQMTQSPSSVSASVGDRVTITCRASQGISSWLAWYQQKPGKAPKLLIYAASSLQSGVPSRFSGSGSGTDFTLTISSLQPEDFATYYCQQANSFPITFGQGTRLEIKR
B4: 9A2-VR24.122 (antibody, V domains shown)
VH: EVQLLESGGGLVQPGGSLRLSCAASGFTFPWYRVHWVRQAPGKGLEWVSSIRSSGGFTYYNSEVKGRFTISRDNSKNTLYLQMNSLRAEDTAVYYCARFYDSFFDIWGQGTMVTVSS
VL: DIQMTQSPSSVSASVGDRVTITCRASQGISSWLAWYQQKPGKAPKLLIYAASSLQSGVPSRFSGSGSGTDFTLTISSLQPEDFATYYCQQANSFPITFGQGTRLEIKR
B5: 9A2-VR24.44 (antibody, V domains shown)
VH: EVQLLESGGGLVQPGGSLRLSCAASGFTFPWYRVHWVRQAPGKGLEWVSSIRSSGGFPYYHPSVKGRFTISRDNSKNTLYLQMNSLRAEDTAVYYCARFYDSFFDIWGQGTMVTVSS
VL: DIQMTQSPSSVSASVGDRVTITCRASQGISSWLAWYQQKPGKAPKLLIYAASSLQSGVPSRFSGSGSGTDFTLTISSLQPEDFATYYCQQANSFPITFGQGTRLEIKR
B6: 9A2-VR24.55 (antibody, V domains shown)
VH: EVQLLESGGGLVQPGGSLRLSCAASGFTFPWYRVHWVRQAPGKGLEWVSSIRSSGGFTYYNPSVKNRFTISRDNSKNTLYLQMNSLRAEDTAVYYCARFYDSFFDIWGQGTMVTVSS
VL: DIQMTQSPSSVSASVGDRVTITCRASQGISSWLAWYQQKPGKAPKLLIYAASSLQSGVPSRFSGSGSGTDFTLTISSLQPEDFATYYCQQANSFPITFGQGTRLEIKR
B7: 9A2-VR39.01 (antibody, V domains shown)
VH: EVQLLESGGGLVQPGGSLRLSCAASGFTFFWFHHVWVRQAPGKGLEWVSSINGRGRVTYYADSVKGRFTISRDNSKNTLYLQMNSLRAEDTAVYYCARFYDSFFDIWGQGTMVTVSS
VL: DIQMTQSPSSVSASVGDRVTITCRASQGISSWLAWYQQKPGKAPKLLIYAASSLQSGVPSRFSGSGSGTDFTLTISSLQPEDFATYYCQQANSFPITFGQGTRLEIKR
B8: 9A2-VR24.27 (antibody, V domains shown)
VH: EVQLLESGGGLVQPGGSLRLSCAASGFTFPWYRVHWVRQAPGKGLEWVSSIRSSGGFPYYHQKVKGRFTISRDNSKNTLYLQMNSLRAEDTAVYYCARFYDSFFDIWGQGTMVTVSS
VL: DIQMTQSPSSVSASVGDRVTITCRASQGISSWLAWYQQKPGKAPKLLIYAASSLQSGVPSRFSGSGSGTDFTLTISSLQPEDFATYYCQQANSFPITFGQGTRLEIKR
B9: 9A2-VR24.111 (antibody, V domains shown)
VH: EVQLLESGGGLVQPGGSLRLSCAASGFTFPWYRVHWVRQAPGKGLEWVSSIRSSGGFPMYNPHVKGRFTISRDNSKNTLYLQMNSLRAEDTAVYYCARFYDSFFDIWGQGTMVTVSS
VL: DIQMTQSPSSVSASVGDRVTITCRASQGISSWLAWYQQKPGKAPKLLIYAASSLQSGVPSRFSGSGSGTDFTLTISSLQPEDFATYYCQQANSFPITFGQGTRLEIKR
B10: 9A2-VR24.33 (antibody, V domains shown)
VH: EVQLLESGGGLVQPGGSLRLSCAASGFTFPWYRVHWVRQAPGKGLEWVSSIRSSGGFPYYNHKVKGRFTISRDNSKNTLYLQMNSLRAEDTAVYYCARFYDSFFDIWGQGTMVTVSS
VL: DIQMTQSPSSVSASVGDRVTITCRASQGISSWLAWYQQKPGKAPKLLIYAASSLQSGVPSRFSGSGSGTDFTLTISSLQPEDFATYYCQQANSFPITFGQGTRLEIKR
B11: 9A2-VR24.124 (antibody, V domains shown)
VH: EVQLLESGGGLVQPGGSLRLSCAASGFTFPWYRVHWVRQAPGKGLEWVSSIRSSGGFTYYTPSVRGRFTISRDNSKNTLYLQMNSLRAEDTAVYYCARFYDSFFDIWGQGTMVTVSS
VL: DIQMTQSPSSVSASVGDRVTITCRASQGISSWLAWYQQKPGKAPKLLIYAASSLQSGVPSRFSGSGSGTDFTLTISSLQPEDFATYYCQQANSFPITFGQGTRLEIKR
B12: 9A2-VR24.110 (antibody, V domains shown)
VH: EVQLLESGGGLVQPGGSLRLSCAASGFTFPWYRVHWVRQAPGKGLEWVSSIRSSGGFPYYNNHVKGRFTISRDNSKNTLYLQMNSLRAEDTAVYYCARFYDSFFDIWGQGTMVTVSS
VL: DIQMTQSPSSVSASVGDRVTITCRASQGISSWLAWYQQKPGKAPKLLIYAASSLQSGVPSRFSGSGSGTDFTLTISSLQPEDFATYYCQQANSFPITFGQGTRLEIKR
B13: 9A2-VR24.30 (antibody, V domains shown)
VH: EVQLLESGGGLVQPGGSLRLSCAASGFTFPWYRVHWVRQAPGKGLEWVSSIRSSGGFPYYNRRVKGRFTISRDNSKNTLYLQMNSLRAEDTAVYYCARFYDSFFDIWGQGTMVTVSS
VL: DIQMTQSPSSVSASVGDRVTITCRASQGISSWLAWYQQKPGKAPKLLIYAASSLQSGVPSRFSGSGSGTDFTLTISSLQPEDFATYYCQQANSFPITFGQGTRLEIKR
B14: 9A2-VR24.102 (antibody, V domains shown)
VH: EVQLLESGGGLVQPGGSLRLSCAASGFTFPWYRVHWVRQAPGKGLEWVSSIRSSGGFPFYNSSVKGRFTISRDNSKNTLYLQMNSLRAEDTAVYYCARFYDSFFDIWGQGTMVTVSS
VL: DIQMTQSPSSVSASVGDRVTITCRASQGISSWLAWYQQKPGKAPKLLIYAASSLQSGVPSRFSGSGSGTDFTLTISSLQPEDFATYYCQQANSFPITFGQGTRLEIKR
B15: 9A2-VR24.131 (antibody, V domains shown)
VH: EVQLLESGGGLVQPGGSLRLSCAASGFTFPWYRVHWVRQAPGKGLEWVSSIRSSGGFTYYNPSVMGRFTISRDNSKNTLYLQMNSLRAEDTAVYYCARFYDSFFDIWGQGTMVTVSS
VL: DIQMTQSPSSVSASVGDRVTITCRASQGISSWLAWYQQKPGKAPKLLIYAASSLQSGVPSRFSGSGSGTDFTLTISSLQPEDFATYYCQQANSFPITFGQGTRLEIKR
B16: 9A2-VR24.97 (antibody, V domains shown)
VH: EVQLLESGGGLVQPGGSLRLSCAASGFTFPWYRVHWVRQAPGKGLEWVSSIRSSGGFPYYSLSVKGRFTISRDNSKNTLYLQMNSLRAEDTAVYYCARFYDSFFDIWGQGTMVTVSS
VL: DIQMTQSPSSVSASVGDRVTITCRASQGISSWLAWYQQKPGKAPKLLIYAASSLQSGVPSRFSGSGSGTDFTLTISSLQPEDFATYYCQQANSFPITFGQGTRLEIKR
B17: 9A2-VR24.57 (antibody, V domains shown)
VH: EVQLLESGGGLVQPGGSLRLSCAASGFTFPWYRVHWVRQAPGKGLEWVSSIRSSGGFTYYNPKVKHRFTISRDNSKNTLYLQMNSLRAEDTAVYYCARFYDSFFDIWGQGTMVTVSS
VL: DIQMTQSPSSVSASVGDRVTITCRASQGISSWLAWYQQKPGKAPKLLIYAASSLQSGVPSRFSGSGSGTDFTLTISSLQPEDFATYYCQQANSFPITFGQGTRLEIKR
B18: 9A2-VR24.107 (antibody, V domains shown)
VH: EVQLLESGGGLVQPGGSLRLSCAASGFTFPWYRVHWVRQAPGKGLEWVSSIRSSGGFPYYNPFVKGRFTISRDNSKNTLYLQMNSLRAEDTAVYYCARFYDSFFDIWGQGTMVTVSS
VL: DIQMTQSPSSVSASVGDRVTITCRASQGISSWLAWYQQKPGKAPKLLIYAASSLQSGVPSRFSGSGSGTDFTLTISSLQPEDFATYYCQQANSFPITFGQGTRLEIKR

In this assay the target is T1, human CD131. The assay is described as follows: cell-based or functional assay.
As for B1, the “IC50 GM-CSF, TF-1 proliferation” value was 0.92 nM.
Take B2: the “IC50 GM-CSF, TF-1 proliferation” value was 0.25 nM.
For B3 the value was 0.48 nM; for B4, 0.66 nM; for B5, 0.4 nM.
For B6 the value was 0.6 nM; for B7, 0.51 nM.
For B8 the value was 0.25 nM; for B9, 0.42 nM.
With B10, the “IC50 GM-CSF, TF-1 proliferation” value is 0.34 nM.
As for B11, the figure is 0.54 nM.
On to B12, for which the “IC50 GM-CSF, TF-1 proliferation” value came to 0.24 nM.
As for B13, the figure is 0.25 nM.
As for B14, the figure is 0.32 nM; as for B15, 1.06 nM; as for B16, 0.16 nM.
As for B17, the “IC50 GM-CSF, TF-1 proliferation” value worked out at 0.33 nM.
As to B18, the “IC50 GM-CSF, TF-1 proliferation” value came out at 0.3 nM.
